Experimental data taken from patent US20150004174A1 (Amgen, published 2015).

B1: 11F1 anti-PCSK9 antibody (antibody, V domains shown)
VH: EVQLVESGGGLVQPGGSLRLSCAASGFTFSNYWMSWVRQAPGKGLEWVASIKQDGSEKYYVDSVKGRFAISRDNAKNSLFLQMNSLRAEDTAVYYCARDLVLMVYDIDYYYYGMDVWGQGTTVTVSS
VL: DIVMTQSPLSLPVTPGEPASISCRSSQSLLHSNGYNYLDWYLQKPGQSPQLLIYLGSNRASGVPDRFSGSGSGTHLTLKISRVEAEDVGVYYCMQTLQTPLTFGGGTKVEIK
B2: 16F12 human IgG4 (antibody, V domains shown)
VH: QVHLVESGGGVVQPGRSLRLSCAASGFTFNSFGMHWVRQAPGKGLEWVALIWSDGSDEYYADSVKGRFTISRDNSKNTLYLQMNSLRAEDTAVYYCARAIAALYYYYGMDVWGQGTTVTVSS
VL: QSVLTQPPSVSAAPGQKVTISCSGSSSNIGNNFVSWYQQLPGTAPKLLIYDYNKRPSGIPDRFSGSKSGTSATLGITGLQTGDEADYYCGTWDSSLSAYVFGTGTRVTVLQ
notes: also called 16F12.1; 16F12, anti-PCSK9 huIgG4

Legend:
[1] = target: human PCSK9 (proprotein convertase subtilisin kexin type 9), wild type (human, UniProt Q8NBP7 31-692, biotinylated in the ELISA formats (site not stated)); assay: cell-based or functional assay
human PCSK9 D374Y mutant = human PCSK9 D374Y mutant (human, UniProt Q8NBP7 31-692, biotinylated in the ELISA formats (site not stated)); assay: cell-based or functional assay
[2] = target: T1, mouse PCSK9, 8xHis tagged (mouse, UniProt Q80W65 35-694); assay: KinExA solution equilibrium
T1 construct: The biotinylated mouse PCSK9 of the hybridoma cross-reactivity screen is entered under this molecule; also called mPCSK9-8xHIS; mPCSK9; not shown: 8xHis tag named only in the label
T1 sequence (Q80W65 35-694): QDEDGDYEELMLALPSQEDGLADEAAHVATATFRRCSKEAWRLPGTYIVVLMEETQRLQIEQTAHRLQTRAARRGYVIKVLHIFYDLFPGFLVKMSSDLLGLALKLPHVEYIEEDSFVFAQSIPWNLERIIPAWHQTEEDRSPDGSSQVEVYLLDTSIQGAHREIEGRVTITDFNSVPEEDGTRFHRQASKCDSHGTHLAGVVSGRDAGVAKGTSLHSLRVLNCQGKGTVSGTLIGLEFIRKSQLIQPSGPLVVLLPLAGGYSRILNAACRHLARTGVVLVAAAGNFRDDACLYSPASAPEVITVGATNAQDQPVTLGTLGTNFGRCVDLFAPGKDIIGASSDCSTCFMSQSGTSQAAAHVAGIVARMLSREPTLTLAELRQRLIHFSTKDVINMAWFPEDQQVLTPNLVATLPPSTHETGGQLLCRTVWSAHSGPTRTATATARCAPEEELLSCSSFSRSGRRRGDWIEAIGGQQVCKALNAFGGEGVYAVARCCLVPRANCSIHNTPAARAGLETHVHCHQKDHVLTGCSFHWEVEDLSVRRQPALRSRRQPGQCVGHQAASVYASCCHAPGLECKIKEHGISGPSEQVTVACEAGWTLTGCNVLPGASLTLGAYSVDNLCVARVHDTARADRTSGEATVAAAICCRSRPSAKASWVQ

Binder | EC50, block of PCSK9-mediated decrease of BODIPY-LDL uptake in HepG2 cells [1] [nM] | EC50, block of PCSK9-mediated decrease of BODIPY-LDL uptake in HepG2 cells (human PCSK9 D374Y mutant) [nM] | fold lower affinity to mouse PCSK9 than to human and cyno PCSK9 [2] [fold]
B1 | 124 | 35.3 | –
B2 | – | – | 10 to 250
